According to patent publication US20170240604A1 (Harvard, published 2017):
No end group written: not given here. fluorescein maleimide = fluorescein maleimide (label on cysteine)

Experiments:
[1] = molecular target: K-Ras (mutation and nucleotide state not stated where it is used) (UniProt P01116); experiment: fluorescence polarization
[2] = molecular target: KRas (G12V)·GppNHp (human) (UniProt P01116); experiment: fluorescence polarization; FITC-labeled peptide at fixed concentration, KRas(G12V) GppNHp titrated 0.5 to 5000 nM; one-site fit with Hill coefficient
NRas·GppNHp = NRas·GppNHp (UniProt P01111); experiment: fluorescence polarization, FITC-225-3 with GppNHp-bound NRas
HRas·GppNHp = HRas·GppNHp (UniProt P01112 1-177, limits assumed); experiment: fluorescence polarization, FITC-225-3 with GppNHp-bound HRas
Rap1a (GppNHp-bound) = molecular target: T1, Rap1a (GppNHp-bound) (UniProt P62834 1-167, limits assumed); experiment: fluorescence polarization, FITC-225-3 with GppNHp-bound Rap1a; FP, GppNHp-bound Rap1a
T1 construct: also called Rapla (so in the source)
T1 sequence: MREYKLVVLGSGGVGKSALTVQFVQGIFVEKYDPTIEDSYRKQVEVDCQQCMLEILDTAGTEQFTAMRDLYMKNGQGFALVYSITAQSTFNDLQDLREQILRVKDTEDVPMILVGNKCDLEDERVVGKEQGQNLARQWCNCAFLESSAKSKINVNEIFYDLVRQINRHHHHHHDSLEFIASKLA

Rab25 (GppNHp-bound) [3] = molecular target: T2, Rab25 (GppNHp-bound) (UniProt P57735 1-213, limits assumed); experiment: fluorescence polarization, FITC-225-3 with GppNHp-bound Rab25; FP, GppNHp-bound Rab25; weak binding given as a number
T2 sequence (looked up): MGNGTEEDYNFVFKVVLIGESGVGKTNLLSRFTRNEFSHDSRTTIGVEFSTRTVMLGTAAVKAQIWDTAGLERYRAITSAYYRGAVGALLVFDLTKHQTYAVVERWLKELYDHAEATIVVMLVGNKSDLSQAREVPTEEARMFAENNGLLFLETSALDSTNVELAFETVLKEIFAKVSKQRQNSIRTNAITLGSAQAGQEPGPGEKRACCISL

RalA = molecular target: T3, RalA (UniProt P11233 1-178, limits assumed); experiment: fluorescence polarization; FITC-labeled 225-3 at fixed concentration, protein titrated; one-site specific binding fit with Hill coefficient
T3 construct: also called RalA protein
T3 sequence: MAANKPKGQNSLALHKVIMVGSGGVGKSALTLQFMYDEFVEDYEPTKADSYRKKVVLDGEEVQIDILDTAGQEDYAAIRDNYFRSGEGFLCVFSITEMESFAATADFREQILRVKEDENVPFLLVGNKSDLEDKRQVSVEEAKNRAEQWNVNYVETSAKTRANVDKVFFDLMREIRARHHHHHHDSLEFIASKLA

Rab25 (GppNHp-bound) [4] = molecular target: T2, Rab25 (GppNHp-bound); experiment: as above

GRRPRRPRCPGDDASIEDLHEYWARLWNYLYAVA (also: FITC label, site not given here) [RDA3]
Kd [1]: 6 nM

GC(fluorescein maleimide)GGPRRPARPRYPGDDASIEDLHEYWARLWNYLYAVA [225-3 R3A]
Kd [2]: 84 nM

B1: 225-3 (peptide)
peptide: GCGGPRRPRRPRYPGDDASIEDLHEYWARLWNYLYAVA
modifications: also: Cys2 labelled with fluorescein-maleimide or biotin-PEG2-maleimide, or unlabelled, depending on assay, non-covalent head-to-tail homodimer
notes: Recombinant, TEV-cleaved
Kd (NRas·GppNHp): 45 nM
Kd (HRas·GppNHp): 45 nM
Kd (Rap1a (GppNHp-bound)): 3.5 µM
Kd (Rab25 (GppNHp-bound) [3]): ~10 µM
Kd (RalA): > 5 µM
Kd (Rab25 (GppNHp-bound) [4]): > 5 µM

GC(fluorescein maleimide)GGPRRPRRPRYPGDAASIEDLHEYWARLWNYLYAVA [225-3 D11A]
Kd [2]: 550 nM

GC(fluorescein maleimide)GGPRRPRRPRYPGDDASIEDLAEYWARLWNYLYAVA [225-3 H18A]
Kd [2]: 170 nM

GC(fluorescein maleimide)GGPRRPRRPRYPGDDASIEDLHEYWARLWNYLAAVA [225-3 Y29A]
Kd [2]: 200 nM

GC(fluorescein maleimide)GGPRRPRRPAYPGDDASIEDLHEYWARLWNYLYAVA [225-3 R6A]
Kd [2]: 340 nM
